Results as given in patent US20020187934A1.

Molecular target: purified HLA-DR4Dw4 (human)
Test: Test A: competition with biotin-FHA307-320 for purified HLA-DR4Dw4, ELISA read-out

concentration showing significant binding: < 0.1 µM
Substance: Phv-Arg-Ala-IIb-Thr-Ala-Ala-Ala-Papa-NH2 (SEQ ID NO:1) (peptide)
